T1: mouse NPR1 extracellular domain expressed with a C-terminal mouse IgG2a (mNPR1-mFc) (mouse)
T1 chain: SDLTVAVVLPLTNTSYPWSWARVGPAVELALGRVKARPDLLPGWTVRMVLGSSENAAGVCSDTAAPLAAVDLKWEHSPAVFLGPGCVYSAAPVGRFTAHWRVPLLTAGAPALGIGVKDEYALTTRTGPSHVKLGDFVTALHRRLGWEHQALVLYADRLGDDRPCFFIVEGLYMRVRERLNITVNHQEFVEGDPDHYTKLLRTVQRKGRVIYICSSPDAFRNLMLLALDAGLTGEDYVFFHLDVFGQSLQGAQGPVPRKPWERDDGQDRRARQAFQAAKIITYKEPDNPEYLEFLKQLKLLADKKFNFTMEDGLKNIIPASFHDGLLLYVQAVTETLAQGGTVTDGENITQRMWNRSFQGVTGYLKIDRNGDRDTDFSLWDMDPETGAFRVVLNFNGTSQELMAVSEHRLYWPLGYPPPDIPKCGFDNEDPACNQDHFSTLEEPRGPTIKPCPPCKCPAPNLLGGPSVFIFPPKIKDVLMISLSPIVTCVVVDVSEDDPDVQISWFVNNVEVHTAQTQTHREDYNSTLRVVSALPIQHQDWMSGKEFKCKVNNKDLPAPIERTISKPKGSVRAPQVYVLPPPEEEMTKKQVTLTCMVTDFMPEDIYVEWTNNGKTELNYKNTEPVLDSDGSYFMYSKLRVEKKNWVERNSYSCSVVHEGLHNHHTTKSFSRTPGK

T2: human NPR1 extracellular domain expressed with a C-terminal mouse IgG2a (hNPR1-mFc) (human)
T2 construct: also called hNPR1-Fc; human NPR1 dimer
T2 chain: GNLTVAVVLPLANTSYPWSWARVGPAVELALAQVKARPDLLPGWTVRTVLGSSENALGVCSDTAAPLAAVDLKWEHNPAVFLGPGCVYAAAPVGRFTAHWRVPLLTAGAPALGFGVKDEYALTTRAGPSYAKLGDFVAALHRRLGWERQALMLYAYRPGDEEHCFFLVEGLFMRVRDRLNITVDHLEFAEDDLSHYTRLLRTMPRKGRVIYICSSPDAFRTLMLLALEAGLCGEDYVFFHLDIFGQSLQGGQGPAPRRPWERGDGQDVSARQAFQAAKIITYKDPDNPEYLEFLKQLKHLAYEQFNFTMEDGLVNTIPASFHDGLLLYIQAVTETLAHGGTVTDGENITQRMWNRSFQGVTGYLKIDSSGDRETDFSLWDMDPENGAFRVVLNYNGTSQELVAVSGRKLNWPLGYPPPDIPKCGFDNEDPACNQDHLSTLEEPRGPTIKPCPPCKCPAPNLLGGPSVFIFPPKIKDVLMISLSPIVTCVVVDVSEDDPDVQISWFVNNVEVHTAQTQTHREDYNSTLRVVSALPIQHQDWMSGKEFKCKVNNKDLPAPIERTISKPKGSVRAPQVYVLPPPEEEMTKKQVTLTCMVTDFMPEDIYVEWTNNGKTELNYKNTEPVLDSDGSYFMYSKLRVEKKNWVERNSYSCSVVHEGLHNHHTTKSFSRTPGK

T3: monkey NPR1 extracellular domain expressed with a C-terminal myc-myc-hexahistidine (mfNPR1-MMH) (monkey, UniProt P16066 33-473 (human entry))
T3 construct: also called monomeric monkey NPR1
T3 chain: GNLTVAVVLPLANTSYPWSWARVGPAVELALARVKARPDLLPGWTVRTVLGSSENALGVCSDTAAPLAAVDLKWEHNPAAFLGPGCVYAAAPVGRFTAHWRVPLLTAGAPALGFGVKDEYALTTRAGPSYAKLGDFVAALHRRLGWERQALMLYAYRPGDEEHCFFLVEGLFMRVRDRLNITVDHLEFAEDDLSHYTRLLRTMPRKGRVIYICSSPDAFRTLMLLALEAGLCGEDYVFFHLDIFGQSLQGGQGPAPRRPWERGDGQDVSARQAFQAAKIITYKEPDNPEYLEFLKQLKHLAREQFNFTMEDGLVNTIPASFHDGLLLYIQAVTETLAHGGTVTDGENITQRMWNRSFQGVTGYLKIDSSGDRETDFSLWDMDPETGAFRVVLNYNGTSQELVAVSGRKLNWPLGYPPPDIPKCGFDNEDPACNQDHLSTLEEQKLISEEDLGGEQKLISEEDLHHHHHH


Columns and labels:
[1] = molecular target: T1, mouse NPR1 extracellular domain …; assay: SPR, Tables 21 to 26
Experimental: (§1) Equilibrium dissociation constant (KD) for different NPR1 reagents binding to purified anti-NPR1 monoclonal antibodies (mAbs) were determined using a real-time surface plasmon resonance based Biacore 4000 biosensor. All binding studies were performed in 10 mM HEPES, 150 mM NaCl, 3 mM EDTA, and 0.05% v/v Surfactant Tween-20, pH 7.4 (HBS-ET) running buffer at 25° C. and 37° C. The Biacore CM5 sensor chip surface was first derivatized by amine coupling with either mouse anti-human Fc specific mAb (GE Healthcare, #BR100839) or goat anti-human Fcy specific polyclonal antibody (Jackson ImmunoResearch Laboratories, #BR-1008-39) to capture anti-NPR1 mAbs.

[2] = molecular target: T4, mouse NPR1 extracellular domain expressed with a C-terminal myc-myc-hexahistidine (mNPR1-MMH) (mouse, UniProt P18293 29-469); assay: SPR, mAb captured, 37 C
How it was run: (§2)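 Binding of NPR1 reagents to anti-NPR1 antibodies immobilized via anti-human Fc capture was measured by SPR in pH 7.4 HEPES/NaCl/EDTA/Tween buffer. Affinities are equilibrium KD values.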

[3] = molecular target: T2, human NPR1 extracellular domain …; assay: SPR, mAb captured, 37 C
How it was run: as §2

[4] = molecular target: T3, monkey NPR1 extracellular domain …; assay: SPR, mAb captured, 37 C
How it was run: as §2

[5] = molecular target: T5, human NPR1 extracellular domain expressed with a C-terminal myc-myc-hexahistidine (hNPR1-MMH) (human, UniProt P16066 33-473); assay: SPR, mAb captured, 37 C
T5 construct: also called hNPR.mmh; monomeric human NPR1
How it was run: as §2

[6] = molecular target: T4, mouse NPR1 extracellular domain …; assay: SPR, mAb captured, 25 C
How it was run: as §2

[7] = molecular target: T2, human NPR1 extracellular domain …; assay: SPR, mAb captured, 25 C
How it was run: as §2

[8] = molecular target: T3, monkey NPR1 extracellular domain …; assay: SPR, mAb captured, 25 C
How it was run: as §2

[9] = molecular target: T5, human NPR1 extracellular domain …; assay: SPR, mAb captured, 25 C
How it was run: as §2

[10] = molecular target: T2, human NPR1 extracellular domain …; assay: SPR, mAb captured, 25 C; 25 C
Experimental: as §1

Row | Binder | binding result [1] | 100 nM Ag Bound (RU) [2] [RU] | 100 nM Ag Bound (RU) [3] [RU] | Kd [3] [nM] | koff [3] [s⁻¹] | kon [3] [M⁻¹ s⁻¹] | t½ [3] [min] | 100 nM Ag Bound (RU) [4] [RU] | Kd [4] [nM] | koff [4] [s⁻¹] | kon [4] [M⁻¹ s⁻¹] | t½ [4] [min] | 100 nM Ag Bound (RU) [5] [RU] | Kd [5] [nM] | koff [5] [s⁻¹] | 100 nM Ag Bound (RU) [6] [RU] | binding result [6] | 100 nM Ag Bound (RU) [7] [RU] | 100 nM Ag Bound (RU) [8] [RU] | 100 nM Ag Bound (RU) [9] [RU] | further results
1 | mAb25508 (antibody, V domains shown) VH: EVQLVESGGGVVRPGGSLRLSCAASGFNVDDYGMSWVRQIPGKGLEWISGINWNGGRIYYADSMKGRITISRDNAKNSLYLQMNSLRAEDTALYHCVRDQWLVRGLDYWGQGTLVTVSS VL: DIQMTQSPSSLSASVGDRVTITCRASQGIYNYLAWFQQKPGKAPKSLIYAASSLQSGVPSKFSGSGSGTDFTLTISSLQPEDFATYYCQQYNTYPYTFGQGTKLEIK | no binding | 0 | 242 | 0.121 | 0.000101 | 838000 | 114 | 275 | 0.349 | 0.000273 | 782000 | 42.3 | 252 | 0.49 | 0.000222 | 0 | no binding (tested: 100 nM) | 211 | 213 | 192 | kon [5]: 453000 M⁻¹ s⁻¹; t½ [5]: 52.1 min; Kd [7]: 0.0868 nM; koff [7]: 6.85e-05 s⁻¹; kon [7]: 789000 M⁻¹ s⁻¹; t½ [7]: 169 min; Kd [8]: 0.187 nM; koff [8]: 0.000132 s⁻¹; kon [8]: 706000 M⁻¹ s⁻¹; t½ [8]: 87.5 min; Kd [9]: 0.309 nM; koff [9]: 0.000134 s⁻¹; kon [9]: 432000 M⁻¹ s⁻¹; t½ [9]: 86.5 min
2 | mAb25502 (antibody, V domains shown) VH: QLQLQESGPGLVKPSETLSLTCTVSGGSISSSSYYWGWIRQPPGKGLEWIGSIYYSGSPYYIPSLKSRVTISVDTSKNQFSLKLSSVTAADTAMYYCARQGRGIARAGPFDYWGQGTLVTVSS VL: DIQMTQSPSSLSASVGDRVTITCRASQGISNYLAWYQEKPGKVPKLLIYAASTLQSGVPSRFSGSGSGTDFTLTITSLQSEDVATYYCQKYNSAPPWTFGQGTKVEIK | no binding | 0 | – | – | – | – | – | 6 | – | – | – | – | 4 | – | – | 0 | no binding (tested: 100 nM) | – | 3 | 2 | Kd [10]: 0.994 nM; koff [10]: 8.74e-05 s⁻¹; kon [10]: 87900 M⁻¹ s⁻¹; t½ [10]: 132 min; binding result [5]: no binding (tested: 100 nM); binding result [8]: no binding (tested: 100 nM)
3 | mAb25498 (antibody, V domains shown) VH: QVQLVESGGGVVQPGRSLRLSCVASGFTFSSYGMVWVRQTPGKGLEWVAVIWHDGTNNYYADSVKGRFTISRDNSKNTLYLQMNSLRAEDTAVYYCAREPWLVRGYYYYAMDVWGQGTTVTVSS VL: not shown | no binding | 0 | 129 | 6.41 | 0.000568 | 88600 | 20.3 | 151 | 52.1 | 0.00369 | 70700 | 3.1 | 97 | 184 | 0.00415 | 0 | no binding (tested: 100 nM) | 94 | 114 | 68 | kon [5]: 22500 M⁻¹ s⁻¹; t½ [5]: 2.8 min; Kd [7]: 3.65 nM; koff [7]: 0.000255 s⁻¹; kon [7]: 69800 M⁻¹ s⁻¹; t½ [7]: 45.3 min; Kd [8]: 27.2 nM; koff [8]: 0.00158 s⁻¹; kon [8]: 57900 M⁻¹ s⁻¹; t½ [8]: 7.3 min; Kd [9]: 81 nM; koff [9]: 0.00182 s⁻¹; kon [9]: 22500 M⁻¹ s⁻¹; t½ [9]: 6.3 min
4 | mAb22809 (antibody, V domains shown) VH: QLQLRESGPGLVKPSETLSLTCTVSGGSINDNSFFWDWIRQTPGRGLEWIGNIFFDGNTYYTPSLKSRVIISVDMSQNQFSLRLTSVTAADTALYYCARHKRSMTAWGFFDYWGQGTLVTVSS VL: DIQMTQSPSSLSASVGDRVTITCRASKRINTYLNWYQQKPGKAPKVLIYSASNLQSGVPSRFSGSGSGTDFTLTINSLQPEDFATYFCQQSFSAPPITFGQGTRLEIK | no binding | 0 | -1 | – | – | – | – | 1 | – | – | – | – | -1 | – | – | 0 | no binding (tested: 100 nM) | -2 | 0 | 0 | binding result [8]: no binding (tested: 100 nM)

— patent publication US20240309103A1 (Regeneron, published 2024)
